Assay results as given in patent US20250333486A1 (NATIONAL HEALTH RESEARCH INSTITUTES, published 2025).
Positions count from the first letter of the chain named. Names may count otherwise. Blank lines part the entries; values can stand above or below the binder they belong to.

What was measured:
[1] = target: T1, CD91, cell-surface receptor of eHSP90α, on PANC-1 cells (UniProt Q07954 20-4544, limits assumed); assay: proximity ligation assay (PLA) in PANC-1 cells, 15 µg/ml rHSP90α, with or without 10 µg/ml control IgG, Clone-2 or Clone-6 [d]
T1 construct: whole, on cells; Endogenous receptor on human PANC-1 cells, detected by proximity ligation assay; also called CD91/LRP-1
T1 sequence (Q07954 20-4544 limits assumed): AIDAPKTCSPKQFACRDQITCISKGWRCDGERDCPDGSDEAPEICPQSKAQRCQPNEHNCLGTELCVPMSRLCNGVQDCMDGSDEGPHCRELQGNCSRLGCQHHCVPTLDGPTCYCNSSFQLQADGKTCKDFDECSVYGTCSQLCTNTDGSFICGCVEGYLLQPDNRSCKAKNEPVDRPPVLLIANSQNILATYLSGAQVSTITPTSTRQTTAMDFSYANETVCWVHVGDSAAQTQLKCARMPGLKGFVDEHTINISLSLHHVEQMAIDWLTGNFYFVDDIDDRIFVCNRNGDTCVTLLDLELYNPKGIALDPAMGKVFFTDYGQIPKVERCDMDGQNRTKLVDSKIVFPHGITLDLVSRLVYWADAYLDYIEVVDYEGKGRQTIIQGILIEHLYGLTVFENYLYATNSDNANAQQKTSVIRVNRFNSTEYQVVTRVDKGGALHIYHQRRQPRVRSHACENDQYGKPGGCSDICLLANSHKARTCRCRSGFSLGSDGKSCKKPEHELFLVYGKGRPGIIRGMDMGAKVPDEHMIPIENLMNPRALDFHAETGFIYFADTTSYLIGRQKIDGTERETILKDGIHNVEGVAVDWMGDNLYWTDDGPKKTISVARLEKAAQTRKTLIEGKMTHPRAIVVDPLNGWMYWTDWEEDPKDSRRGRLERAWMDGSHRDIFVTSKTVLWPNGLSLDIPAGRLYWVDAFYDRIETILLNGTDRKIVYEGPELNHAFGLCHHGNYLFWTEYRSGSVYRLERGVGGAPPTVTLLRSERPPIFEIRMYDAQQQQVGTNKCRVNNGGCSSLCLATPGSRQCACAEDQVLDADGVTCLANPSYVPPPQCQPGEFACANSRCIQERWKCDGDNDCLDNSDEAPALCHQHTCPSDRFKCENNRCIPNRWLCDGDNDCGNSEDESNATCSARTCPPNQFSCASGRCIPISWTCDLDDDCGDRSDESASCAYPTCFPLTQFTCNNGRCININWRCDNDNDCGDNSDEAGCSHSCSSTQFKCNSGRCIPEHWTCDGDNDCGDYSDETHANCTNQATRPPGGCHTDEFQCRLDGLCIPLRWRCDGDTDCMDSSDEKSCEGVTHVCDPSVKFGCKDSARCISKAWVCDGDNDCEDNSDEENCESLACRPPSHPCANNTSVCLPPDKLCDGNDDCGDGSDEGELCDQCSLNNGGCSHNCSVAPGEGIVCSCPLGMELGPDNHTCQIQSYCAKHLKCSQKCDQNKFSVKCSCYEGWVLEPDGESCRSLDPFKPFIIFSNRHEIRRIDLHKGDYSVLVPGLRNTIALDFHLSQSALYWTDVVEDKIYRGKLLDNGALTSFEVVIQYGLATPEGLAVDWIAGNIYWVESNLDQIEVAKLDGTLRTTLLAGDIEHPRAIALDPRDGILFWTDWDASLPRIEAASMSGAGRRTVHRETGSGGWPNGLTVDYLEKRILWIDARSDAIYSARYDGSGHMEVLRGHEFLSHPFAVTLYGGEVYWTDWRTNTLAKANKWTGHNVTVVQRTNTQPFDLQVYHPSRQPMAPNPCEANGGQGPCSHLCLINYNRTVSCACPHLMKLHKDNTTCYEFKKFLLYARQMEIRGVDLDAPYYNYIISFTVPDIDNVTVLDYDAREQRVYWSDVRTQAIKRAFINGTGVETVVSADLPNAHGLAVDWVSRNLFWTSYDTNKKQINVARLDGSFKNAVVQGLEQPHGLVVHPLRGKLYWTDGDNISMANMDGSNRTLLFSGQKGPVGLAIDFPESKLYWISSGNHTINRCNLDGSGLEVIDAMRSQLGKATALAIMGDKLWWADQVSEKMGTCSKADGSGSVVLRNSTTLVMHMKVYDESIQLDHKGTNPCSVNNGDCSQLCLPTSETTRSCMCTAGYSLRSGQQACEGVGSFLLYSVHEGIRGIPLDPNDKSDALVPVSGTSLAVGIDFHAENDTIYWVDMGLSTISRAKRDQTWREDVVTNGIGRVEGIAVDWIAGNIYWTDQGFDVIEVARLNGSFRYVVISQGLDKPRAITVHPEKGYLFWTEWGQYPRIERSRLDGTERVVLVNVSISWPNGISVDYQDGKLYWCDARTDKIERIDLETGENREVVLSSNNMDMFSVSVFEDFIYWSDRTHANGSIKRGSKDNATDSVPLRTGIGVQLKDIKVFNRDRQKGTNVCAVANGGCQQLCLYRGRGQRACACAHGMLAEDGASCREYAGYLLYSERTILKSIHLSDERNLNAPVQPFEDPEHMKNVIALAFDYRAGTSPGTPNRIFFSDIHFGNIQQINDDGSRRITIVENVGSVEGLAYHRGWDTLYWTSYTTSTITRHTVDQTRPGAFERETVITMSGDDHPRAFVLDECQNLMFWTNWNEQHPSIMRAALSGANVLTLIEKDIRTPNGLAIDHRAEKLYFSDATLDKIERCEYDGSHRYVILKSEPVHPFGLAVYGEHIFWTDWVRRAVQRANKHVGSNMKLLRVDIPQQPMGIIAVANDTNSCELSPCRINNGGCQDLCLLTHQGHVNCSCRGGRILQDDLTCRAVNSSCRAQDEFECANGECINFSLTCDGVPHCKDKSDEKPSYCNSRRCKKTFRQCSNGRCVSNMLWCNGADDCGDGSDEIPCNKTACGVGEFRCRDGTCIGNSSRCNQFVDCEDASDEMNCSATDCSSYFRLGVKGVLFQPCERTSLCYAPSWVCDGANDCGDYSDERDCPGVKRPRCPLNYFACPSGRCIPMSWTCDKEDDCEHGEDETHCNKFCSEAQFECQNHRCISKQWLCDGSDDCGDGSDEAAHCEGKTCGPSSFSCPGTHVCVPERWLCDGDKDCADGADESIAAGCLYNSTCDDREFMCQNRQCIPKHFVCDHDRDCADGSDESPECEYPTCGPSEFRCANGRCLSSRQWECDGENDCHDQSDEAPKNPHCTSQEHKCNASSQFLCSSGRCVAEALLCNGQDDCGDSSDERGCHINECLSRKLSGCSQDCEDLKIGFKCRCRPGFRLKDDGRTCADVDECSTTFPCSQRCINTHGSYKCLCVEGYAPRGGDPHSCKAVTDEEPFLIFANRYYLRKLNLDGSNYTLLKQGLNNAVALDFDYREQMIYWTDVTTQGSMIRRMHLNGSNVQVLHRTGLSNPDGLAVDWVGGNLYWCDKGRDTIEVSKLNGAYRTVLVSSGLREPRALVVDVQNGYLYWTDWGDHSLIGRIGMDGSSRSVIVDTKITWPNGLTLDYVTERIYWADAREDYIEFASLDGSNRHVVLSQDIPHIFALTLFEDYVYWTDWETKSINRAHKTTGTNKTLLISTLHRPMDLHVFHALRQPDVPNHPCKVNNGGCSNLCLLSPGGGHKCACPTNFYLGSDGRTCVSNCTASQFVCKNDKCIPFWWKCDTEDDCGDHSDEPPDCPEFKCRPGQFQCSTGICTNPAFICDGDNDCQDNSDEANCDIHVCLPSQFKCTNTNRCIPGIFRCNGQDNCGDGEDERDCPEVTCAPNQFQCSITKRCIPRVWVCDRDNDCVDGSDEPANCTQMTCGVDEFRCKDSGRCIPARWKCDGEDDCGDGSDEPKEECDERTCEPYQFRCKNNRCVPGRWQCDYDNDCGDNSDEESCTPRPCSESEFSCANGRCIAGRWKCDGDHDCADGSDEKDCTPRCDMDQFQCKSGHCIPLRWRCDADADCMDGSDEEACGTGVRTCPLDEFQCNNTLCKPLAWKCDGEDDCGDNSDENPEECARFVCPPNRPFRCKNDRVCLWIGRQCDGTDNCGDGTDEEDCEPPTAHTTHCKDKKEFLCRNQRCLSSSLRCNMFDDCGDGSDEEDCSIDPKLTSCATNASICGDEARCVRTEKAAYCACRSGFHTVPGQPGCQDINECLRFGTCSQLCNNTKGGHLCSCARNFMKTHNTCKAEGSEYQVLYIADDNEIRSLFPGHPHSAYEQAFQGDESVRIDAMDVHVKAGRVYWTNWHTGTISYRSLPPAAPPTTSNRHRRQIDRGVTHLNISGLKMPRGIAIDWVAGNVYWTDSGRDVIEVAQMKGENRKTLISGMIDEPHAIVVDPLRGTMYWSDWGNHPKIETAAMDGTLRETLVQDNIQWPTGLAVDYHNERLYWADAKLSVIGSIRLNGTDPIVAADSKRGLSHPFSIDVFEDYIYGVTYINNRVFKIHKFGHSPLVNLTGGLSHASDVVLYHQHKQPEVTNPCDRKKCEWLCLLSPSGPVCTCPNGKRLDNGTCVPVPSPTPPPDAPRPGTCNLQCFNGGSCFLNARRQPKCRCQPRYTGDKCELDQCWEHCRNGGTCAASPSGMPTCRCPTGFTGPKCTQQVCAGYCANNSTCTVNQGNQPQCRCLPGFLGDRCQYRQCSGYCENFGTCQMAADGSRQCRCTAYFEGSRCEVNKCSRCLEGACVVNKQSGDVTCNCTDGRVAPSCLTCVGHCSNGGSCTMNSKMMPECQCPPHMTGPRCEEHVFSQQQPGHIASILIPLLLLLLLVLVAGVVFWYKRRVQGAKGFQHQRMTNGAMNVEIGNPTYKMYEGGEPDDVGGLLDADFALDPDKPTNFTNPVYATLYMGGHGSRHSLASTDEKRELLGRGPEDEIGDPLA
Procedure: PANC-1 cells seeded onto glass coverslips at a density of 2×10⁵ cells per 22×22-mm coverslip were incubated 16 h with 0.5% serum-containing medium at 37° C. plus a 5% CO₂ humidified atmosphere. The cells were then added with PBS or 15 μg/ml of rHSP90α in the absence or presence of 10 μg/ml of control IgG or the tested anti-HSP90α antibody for another 24-h incubation. The treated cells were then fixed with 3% paraformaldehyde and blocked with the blocking solution provided in the Duolink in situ PLA kit (Olink Bioscience, Uppsala, Sweden). Furthermore, the cell samples were incubated overnight at 4° C. with anti-CD91 antibody (1:80, cat. #550495, BD Biosciences, San Jose, CA, USA) mixed with anti-HSP90α antibody (1:80, cat. #AHP-1339, AbD Serotec, Raleigh, NC, USA) or anti-IKKα antibody (1:80, cat. #3285, Epitomics Co., Burlingame, CA, USA). After washed trice with Tris-buffered saline plus 0.05% Tween 20, the cell samples were incubated with PLA probes for the subsequent ligation and amplification procedure according to the manufacturer's instructions for the Duolink in situ PLA kit. Finally, nuclei were counterstained with 4′,6′-diamidino-2-phenylindole (DAPI; Sigma-Aldrich). Images were photographed and analyzed using Leica TCS SP5 II confocal microscope and LAS AF Lite 4.0 software (Leica, Wetzlar, Germany).

[2] = target: T2, recombinant 732-amino acid full-length human HSP90α (rHSP90α; PeproTech) (human, UniProt P07900 1-732, limits assumed); assay: SPR, Biacore T200; antibody captured on Protein A chip, rHSP90α 1.5625-100 nM as analyte; 1:1 model
T2 construct: Bought protein used as immunogen, ELISA coat (12.5 ng/ml), Biacore analyte and cell stimulus; also called recombinant human HSP90α; eHSP90α
Procedure: (§1) To measure the HSP90α-binding characteristics of anti-HSP90α antibodies, binding kinetic assays were performed using Biacore T200 (Cytiva Co., Marlborough, MA, USA). The interested anti-HSP90α antibodies were applied onto Protein A Series S sensor chips as ligands to achieve approximately 3000˜5000 response units. A series of concentrations of rHSP90α (1.5625-100 nM) in HBS-EP+ buffer were injected over the chip surface. The association was monitored for 60 sec, and the final dissociation time was 1500 sec.

[3] = target: T2, recombinant 732-amino acid full-length …; assay: SPR, Biacore T200, fitted to a 1:1 interaction model [b]
Procedure: as §1

[4] = target: T3, VGSDEEEEKK; assay: peptide-scanning ELISA on plates coated with 10-a.a. peptides [b]
T3 construct: HSP90α a.a
T3 peptide: VGSDEEEEKK
From the text: (§2) At first, the domain scanning strategy was used to roughly delineate the HSP90α region responsible for the binding with our prepared antibodies. The above-mentioned full-length HSP90α and its 3 truncated fragments were employed to coat 96-well ELISA plates for assaying the binding activities of the tested mouse monoclonal antibodies. […] Therefore, in peptide scanning strategy, a 132 peptide library was synthesized by Mimotopes Pty. Ltd. (Melbourne, Victoria, Australia), consisting of a series of 10-a.a. peptides offset by 2 a.a. to span the sequence of the a.a. […] This series of peptides were used to coat 96-well ELISA plates for assaying the binding activities of the tested antibodies. […] These peptides were subjected to ELISA as described above.

[5] = target: T4, KPEIEDVGSD; assay: as above
T4 construct: HSP90α a.a
T4 peptide: KPEIEDVGSD
From the text: as §2

[6] = target: T5, EDVGSDEEEE; assay: as above
T5 construct: HSP90α a.a
T5 peptide: EDVGSDEEEE
From the text: as §2

[7] = target: T6, EIEDVGSDEE; assay: as above
T6 construct: HSP90α a.a
T6 peptide: EIEDVGSDEE
From the text: as §2

[8] = target: T7, EDKEEEKEKE; assay: as above
T7 construct: HSP90α a.a
T7 peptide: EDKEEEKEKE
From the text: as §2

[9] = target: T8, DKEVSDDEAE; assay: as above
T8 construct: HSP90α a.a
T8 peptide: DKEVSDDEAE
From the text: as §2

[10] = target: T9, a.a. 630~732; assay: domain-scanning ELISA on plates coated with full-length or truncated His-tagged HSP90α [a]
T9 construct: not shown: left out of the chain
T9 sequence (chain, as listed by the source limits assumed): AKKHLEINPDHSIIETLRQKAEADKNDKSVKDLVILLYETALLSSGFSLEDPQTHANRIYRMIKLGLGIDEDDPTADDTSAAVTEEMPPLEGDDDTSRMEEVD
From the text: as §2
As listed in the above Table 3, HH01 antibody is capable of binding specifically to the human HSP90α with novel amino acid (a.a.) sequences in the complementarity determining regions (CDRs), and therefore we intended to identify which region of HSP90α was bound by HH01 antibody. In a preliminary study, we employed the strategy of HSP90α domain scanning to delineate the HSP90α region responsible for the binding with Clone-2 antibody. […] Subsequently, the binding activities of Clone-2 antibody to the full-length and truncated HSP90α were assayed by a conventional ELISA method.

[11] = target: T10, EVSDDEAEEK; assay: peptide-scanning ELISA on plates coated with 10-a.a. peptides [c]
T10 construct: HSP90α a.a
T10 peptide: EVSDDEAEEK
From the text: as §2

[12] = target: T11, KEKEEKESED; assay: as above
T11 construct: HSP90α a.a
T11 peptide: KEKEEKESED
From the text: as §2

[13] = target: T12, SDEEEEKKDG; assay: as above
T12 construct: HSP90α a.a
T12 peptide: SDEEEEKKDG
From the text: as §2

B2: Clone-2-chimera anti-HSP90α antibody (antibody, V domains shown)
VH: EVQVVESGGGLVQPKGSLKLSCAASGFTFKTYAMNWVRQAPGKGLEWVARIRSKSRNYATYYADSVKDRFTISRDDSQFMFYLQMNNLKTEDTAMYYCVVGGSGFDYWGQGTTLTVSS
VL: DVLMTQTPLSLPVSLGDQASISCRSSQSIVHSNGNTYLEWYLQKPGQSPKLLIYKVSNRFSGVPDRFSGSGSGTDFTLSISRVEAGDLGVYYCFQGSHVPWTFGGGTKLEIK
notes: Clone-2 VH and VL joined to human IgG1 constant region (pFUSEss-CHIg-hG1e1; Fc with mutations at Q250T, E356D, M358L, L428M) and human κ constant region (pFUSE2ss-CLIg-hk); expressed in ExpiCHO cells
Kd [2]: 0.094 nM | koff [3]: 6.7e-05 s⁻¹ | kon [3]: 711000 M⁻¹ s⁻¹ | binding result [4]: no binding | binding result [5]: no binding | binding result [6]: no binding | binding result [7]: no binding | binding result [8]: no binding | binding result [9]: no binding

B4: HH01 anti-HSP90α antibody (Clone-2-hA) (antibody, V domains shown)
VH: B2 VH with V4L, K15G, K19R, K43Q, Q78K, F79N, M80Q, K89R, M95V
VL: B2 VL with L3V, K50Q, S79T, R82S, G86E
notes: expressed in ExpiCHO cells; also called HH01 antibody
Kd [2]: 0.187 nM | koff [3]: 0.000137 s⁻¹ | kon [3]: 729000 M⁻¹ s⁻¹ | binding result [11]: no binding | binding result [12]: no binding | binding result [13]: no binding

Results, then the binder that gave them:

binding result [1]: binds
B1: IKKα (enzyme, human, UniProt O15111 1-745, looked up)
single chain: MERPPGLRPGAGGPWEMRERLGTGGFGNVCLYQHRELDLKIAIKSCRLELSTKNRERWCHEIQIMKKLNHANVVKACDVPEELNILIHDVPLLAMEYCSGGDLRKLLNKPENCCGLKESQILSLLSDIGSGIRYLHENKIIHRDLKPENIVLQDVGGKIIHKIIDLGYAKDVDQGSLCTSFVGTLQYLAPELFENKPYTATVDYWSFGTMVFECIAGYRPFLHHLQPFTWHEKIKKKDPKCIFACEEMSGEVRFSSHLPQPNSLCSLVVEPMENWLQLMLNWDPQQRGGPVDLTLKQPRCFVLMDHILNLKIVHILNMTSAKIISFLLPPDESLHSLQSRIERETGINTGSQELLSETGISLDPRKPASQCVLDGVRGCDSYMVYLFDKSKTVYEGPFASRSLSDCVNYIVQDSKIQLPIIQLRKVWAEAVHYVSGLKEDYSRLFQGQRAAMLSLLRYNANLTKMKNTLISASQQLKAKLEFFHKSIQLDLERYSEQMTYGISSEKMLKAWKEMEEKAIHYAEVGVIGYLEDQIMSLHAEIMELQKSPYGRRQGDLMESLEQRAIDLYKQLKHRPSDHSYSDSTEMVKIIVHTVQSQDRVLKELFGHLSKLLGCKQKIIDLLPKVEVALSNIKEADNTVMFMQGKRQKEIWHLLKIACTQSSARSLVGSSLEGAVTPQTSAWLPPTSAEHDHSLSCVVTPQDGETSAQMIEENLNCLGHLSTIIHEANEEQGNSMMNLDWSWLTE
notes: endogenous, in cells; partner of CD91 in the proximity ligation assay

binding result [10]: no binding
B3: Clone-2 anti-HSP90α antibody (mouse monoclonal) (antibody, V domains shown)
VH: B2 VH
VL: B2 VL
notes: Mouse hybridoma antibody, IgG2b isotype with κ light chains; First tested as culture supernatant, then purified; also called Clone-2 antibody; parental Clone-2
